Three molecules from article PMC3526519, “Rationally re-designed mutation of NAD-independent L-lactate dehydrogenase: high optical resolution of racemic mandelic acid by the engineered Escherichia coli” (Microbial Cell Factories, 2012) can be followed below.

The target in series [1] is T1, L-iLDH (NAD-independent L-lactate dehydrogenase) (Stutzerimonas stutzeri, UniProt I1SLB1, V108A).
T1 construct: gene lldD; membrane flavoprotein; wild-type prepared as in earlier report
T1 sequence (I1SLB1 1-391 V108A): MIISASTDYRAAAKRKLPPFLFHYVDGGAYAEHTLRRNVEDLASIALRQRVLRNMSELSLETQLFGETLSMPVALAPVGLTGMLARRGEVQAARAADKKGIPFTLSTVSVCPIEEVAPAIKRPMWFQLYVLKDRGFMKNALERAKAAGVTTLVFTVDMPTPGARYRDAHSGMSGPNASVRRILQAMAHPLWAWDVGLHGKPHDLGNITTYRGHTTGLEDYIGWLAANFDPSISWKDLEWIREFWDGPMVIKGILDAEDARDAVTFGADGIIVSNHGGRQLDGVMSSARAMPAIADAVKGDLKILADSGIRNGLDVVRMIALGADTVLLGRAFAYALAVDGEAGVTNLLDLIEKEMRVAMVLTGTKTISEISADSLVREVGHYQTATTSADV
Put plainly: DCIP reduction at […] nm, double-reciprocal plots. It is filed as biochemical. The settings on record: competitive versus L-mandelate; 0.0625 mM DCIP, 50 mM Tris-HCl pH 7.5, 30 °C.

For another series, the system named is T2, C[C@H](O)C(=O)O.
T2 construct: membrane flavoprotein; wild-type prepared as in earlier report
The series is described as follows: purified protein. The series is classed as biochemical, Stutzerimonas stutzeri. The following applies: 0.0625 mM DCIP as electron acceptor, 50 mM Tris-HCl pH 7.5, 30 °C.

The subject of the next series is T3, O=C(O)[C@@H](O)c1ccccc1.
T3 construct: membrane flavoprotein; wild-type prepared as in earlier report
The series is described as follows: purified protein. The series is classed as biochemical, Stutzerimonas stutzeri. The settings on record: 0.0625 mM DCIP as electron acceptor, 50 mM Tris-HCl pH 7.5, 30 °C.

Substrate in series [2]: O=C(O)[C@@H](O)c1ccccc1
The series is described as follows: purified protein. It is filed as biochemical, Stutzerimonas stutzeri. The settings on record: 0.0625 mM DCIP as electron acceptor, 50 mM Tris-HCl pH 7.5, 30 °C.

Substrate in series [3]: C[C@H](O)C(=O)O
The series is described as follows: purified protein. The series is classed as biochemical, Stutzerimonas stutzeri. The settings on record: 0.0625 mM DCIP as electron acceptor, 50 mM Tris-HCl pH 7.5, 30 °C.

As usually defined, the Ki is the equilibrium dissociation constant of an inhibitor or competing ligand from its target. A lower Ki goes with higher affinity. One may read the Km as the concentration of substrate that gives half-maximal velocity. The kcat is the maximal rate divided by the concentration of active sites. One may read the kcat/Km as the second-order rate constant that governs catalysis at low substrate concentration.

For the molecule `O=C(O)[C@H](O)c1ccccc1` [D-mandelate], the affinity in series [1], expressed as Ki, was 5.5 ± 0.5 mM.

For the molecule “L-iLDH (NAD-independent L-lactate dehydrogenase) (Stutzerimonas stutzeri; V108A)”, in the series with C[C@H](O)C(=O)O, the Km was determined as 800 ± 100 µM, the kcat amounted to 185 ± 36 s⁻¹ and the kcat/Km was 231000 M⁻¹ s⁻¹. Further, in the series on O=C(O)[C@@H](O)c1ccccc1, the Km amounted to 1600 ± 100 µM, the kcat amounted to 97 ± 13 s⁻¹ and the specificity constant (kcat/Km) was 61000 M⁻¹ s⁻¹.

B1: L-iLDH (NAD-independent L-lactate dehydrogenase) (Stutzerimonas stutzeri) (protein)
chain: T1 sequence (I1SLB1 1-391 V108A)
notes: membrane flavoprotein; wild-type prepared as in earlier report
With B1, in the series “purified protein [2]”, the Km was found to be 6800 ± 1000 µM, the catalytic constant (kcat) came to 8.3 ± 1.3 s⁻¹ and the kcat/Km came to 1200 M⁻¹ s⁻¹. Further, in the series “purified protein [3]”, the Km was 180 ± 10 µM, the turnover number (kcat) was found to be 445 ± 44 s⁻¹ and the specificity constant (kcat/Km) came to 2.47e+06 M⁻¹ s⁻¹.
